The values that follow come from article PMC3787751.

Substrate in the data set: [O-][Cl+]O
The experiment in a line: purified protein. The note with it: 25 °C, pH 7.0.

B1: NwCld (Nitrobacter winogradskyi Nb-255) (protein)
chain: MTFTVFTGGDSGAWSILSVAPVIGESLMAASHLAIAPSLSLGDTSATTPWQLRGVASHARYVERAEKIALTSVQAGLGRNEATRAALIPIRKSAAWWEMTQDERRAIFEDKSHHIAASLKYLPAIARQLYHCRDIGEPFDFLTWFEYAPEHATMFEDLVGVLRATEEWTYVEREVDIRLARAI
B1: the Km came out at 90 ± 12 µM and the kcat was 190 ± 14 s⁻¹.

B2: NdCld (Nitrospira defluvii) (protein)
chain: ADREKLLTESGVYGTFATFQMDHDWWDLPGESRVISVAEVKGLVEQWSGKILVESYLLRGLSDHADLMFRVHARTLSDTQQFLSAFMGTRLGRHLTSGGLLHGVSKKPTYVAGFPESMKTELQVNGESGSRPYAIVIPIKKDAEWWALDQEARTALMQEHTQAALPYLKTVKRKLYHSTGLDDVDFITYFETERLEDFHNLVRALQQVKEFRHNRRFGHPTLLGTMSPLDEILEKFAQ
Take B2: the Km was found to be 58 ± 9 µM and the kcat came out at 35 ± 5 s⁻¹.
